The term Kd denotes the free concentration of one partner at which half of the binding sites on the other are occupied at equilibrium, for simple one-to-one binding. A lower Kd goes with higher affinity.

Common to all, as to experiment: SPR, kinetics, Fab over captured mutant
A general note: Surface plasmon resonance follows binding to a sensor surface in real time, without labels.

For one experiment, the target named is T1, shCD131 N337A (human, UniProt P32927 17-438).
T1 construct: C-terminal 6xHis
T1 sequence: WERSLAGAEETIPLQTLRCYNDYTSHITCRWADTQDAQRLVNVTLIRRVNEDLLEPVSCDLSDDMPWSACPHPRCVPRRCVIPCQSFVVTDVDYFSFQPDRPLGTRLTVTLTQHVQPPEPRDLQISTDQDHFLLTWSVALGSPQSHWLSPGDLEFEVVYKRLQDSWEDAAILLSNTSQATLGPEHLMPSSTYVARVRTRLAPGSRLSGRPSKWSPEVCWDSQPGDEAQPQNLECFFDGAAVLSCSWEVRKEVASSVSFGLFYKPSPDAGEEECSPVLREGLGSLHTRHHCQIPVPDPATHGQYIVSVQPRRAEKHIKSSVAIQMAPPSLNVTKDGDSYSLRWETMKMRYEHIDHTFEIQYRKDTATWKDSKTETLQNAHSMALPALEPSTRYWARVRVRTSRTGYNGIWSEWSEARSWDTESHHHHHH

A further experiment has as its target T2, shCD131 V105A (human, UniProt P32927 17-438).
T2 construct: C-terminal 6xHis
T2 sequence: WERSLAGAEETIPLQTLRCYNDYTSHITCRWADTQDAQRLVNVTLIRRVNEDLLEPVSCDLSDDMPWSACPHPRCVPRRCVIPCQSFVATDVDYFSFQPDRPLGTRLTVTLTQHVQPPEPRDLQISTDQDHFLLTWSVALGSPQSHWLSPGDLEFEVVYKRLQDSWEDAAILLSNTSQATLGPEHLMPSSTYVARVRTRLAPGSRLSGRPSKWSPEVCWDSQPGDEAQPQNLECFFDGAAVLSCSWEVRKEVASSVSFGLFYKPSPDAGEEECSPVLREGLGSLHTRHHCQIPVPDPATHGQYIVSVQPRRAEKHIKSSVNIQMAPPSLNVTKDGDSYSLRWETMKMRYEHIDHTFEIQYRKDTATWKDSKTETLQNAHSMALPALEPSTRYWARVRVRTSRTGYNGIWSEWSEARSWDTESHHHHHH

Another experiment addresses T3, shCD131 R418A (human, UniProt P32927 17-438).
T3 construct: C-terminal 6xHis
T3 sequence: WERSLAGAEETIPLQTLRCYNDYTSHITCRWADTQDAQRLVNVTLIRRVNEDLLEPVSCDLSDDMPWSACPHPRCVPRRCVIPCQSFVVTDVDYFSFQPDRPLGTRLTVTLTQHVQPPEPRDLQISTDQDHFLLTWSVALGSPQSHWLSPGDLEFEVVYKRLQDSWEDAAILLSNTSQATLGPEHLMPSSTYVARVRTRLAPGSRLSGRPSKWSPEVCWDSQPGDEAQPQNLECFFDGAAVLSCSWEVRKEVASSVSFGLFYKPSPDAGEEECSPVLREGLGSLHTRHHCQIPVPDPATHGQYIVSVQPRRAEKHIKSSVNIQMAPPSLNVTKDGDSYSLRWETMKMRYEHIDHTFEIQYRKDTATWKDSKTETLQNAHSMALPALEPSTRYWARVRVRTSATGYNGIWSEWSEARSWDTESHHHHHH

Another experiment concerns the target T4, shCD131 T419A (human, UniProt P32927 17-438).
T4 construct: C-terminal 6xHis
T4 sequence: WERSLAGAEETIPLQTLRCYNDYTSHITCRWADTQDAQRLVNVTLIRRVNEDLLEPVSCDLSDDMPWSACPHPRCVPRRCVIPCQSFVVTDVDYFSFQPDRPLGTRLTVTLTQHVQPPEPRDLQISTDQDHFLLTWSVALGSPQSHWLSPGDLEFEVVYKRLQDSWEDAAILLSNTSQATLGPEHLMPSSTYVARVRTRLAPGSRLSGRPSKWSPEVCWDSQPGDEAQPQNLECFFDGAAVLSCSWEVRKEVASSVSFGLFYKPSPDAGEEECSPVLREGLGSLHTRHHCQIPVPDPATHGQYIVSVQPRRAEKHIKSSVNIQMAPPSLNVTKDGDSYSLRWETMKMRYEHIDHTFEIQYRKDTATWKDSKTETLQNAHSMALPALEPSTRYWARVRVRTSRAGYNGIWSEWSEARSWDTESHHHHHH

B1: 9A2 Fab (Fab, V domains shown)
VH: EVQLLESGGGLVQPGGSLRLSCAASGFTFSHYHMLWVRQAPGKGLEWVSSIRSSGGFTYYADSVKGRFTISRDNSKNTLYLQMNSLRAEDTAVYYCARFYDSFFDIWGQGTMVTVSS
VL: DIQMTQSPSSVSASVGDRVTITCRASQGISSWLAWYQQKPGKAPKLLIYAASSLQSGVPSRFSGSGSGTDFTLTISSLQPEDFATYYCQQANSFPITFGQGTRLEIKR
notes: also called recombinant Fab of 9A2
In the case of B1, the Kd was found to be 91 nM with shCD131 N337A, 78 nM with shCD131 V105A, 70 nM with shCD131 R418A and 53 nM with shCD131 T419A.

These data come from patent publication US20190062438A1 (CSL, published 2019).
